In patent US20220267442A1:

Molecular target: recombinant human TGF-β1 (human) (UniProt P01137)
Assay: cell-based or functional assay

recombinant human TGF-β1 (human), sequence (P01137 279-390 limits assumed): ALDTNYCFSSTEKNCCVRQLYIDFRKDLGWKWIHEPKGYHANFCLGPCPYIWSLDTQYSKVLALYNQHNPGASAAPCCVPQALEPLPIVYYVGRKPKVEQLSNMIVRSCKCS

80% maximal inhibition (IC80), TGF-β signaling reporter assay (TGF-β/SMAD luciferase in HEK293 cells, 10 ng/mL recombinant human TGF-β1): 25 nM
B1: anti-TGF-β (αTGF-β, 1D11 clone) (antibody, from another filing, V domains shown)
VH: QVQLQQSGPELVRPGASVKLSCKASGYIFITYWMNWVKQRPGQGLEWIGQIFPASGSTNYNEMFEGKATLTVDTSSSTAYMQLSSLTSEDSAVYYCARGDGNYALDAMDYWGQGTSVTVSS
VL: DIVLTQSPASLAVSLGQRATISCRASESVDSYGNSFMHWYQQKSGQPPKLLIYLASNLESGVPARFSGSGSRTDFTLTIDPVEADDAATYYCQQNNEDPLTFGAGTKLEIK
